Laboratory results as given in patent publication US20220144895A1, “DE NOVO DESIGN OF TUNABLE PH-DRIVEN CONFORMATIONAL SWITCHES” (University of Washington, priority 2019, published 2022).
“Also recorded” adds a separate entry of the source.

How the values were obtained:
[1] = Native mass spectrometry of pH-induced changes in oligomeric state; format: physicochemical; settings: for pH response of oligomeric state (pH-induced disassembly): pH ~7 to ~3
In short: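 Protein in 200 mM ammonium acetate/50 mM triethylammonium acetate, acid-adjusted to each target pH, was held 30 min on ice and sprayed by nESI at 5 μM monomer or 1.67 μM trimer. Oligomer fractions came from integrated charge-state series, then fitted by nonlinear least squares.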

[2] = Fluorescence dequenching liposome leakage (liposome disruption) assay; format: biochemical; settings: for pH-dependent liposome disruption: SRB leakage
In short: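 Extruded ~120–130 nm liposomes (DOPC or 3:1 DOPC:POPS, ± 25% cholesterol) loaded with 25 mM sulforhodamine B in Tris buffer pH 8.0 were acidified to target pH for 20 min at 24 °C. Leakage was read as SRB dequenching (ex/em 565/586) and normalised to pre-acidification and 1% Triton X-100 signals.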

[3] = test system: U2-OS cells; test: Colocalization of +36GFP fusions with lysosomal membrane (confocal microscopy); format: cell-based; settings: 5 μM, 1 hr
Description: U-2 OS (ATCC) cells were cultured in DMEM supplemented with 10% (v/v) inactivated FBS (Corning), 2 mM glutamine, penicillin (100 IU/mL), and streptomycin (100 μg/mL) at 37° C. and 5% CO2. The glass-bottom coverslip chambers were pre-coated with 500 μg/mL of Matrigel (Corning). Transfection of LAMP1-HaloTagTM was performed using Lonza Nucleofector system according to the manufacturer's specifications. After overnight of recovery and expression, the cells expressing LAMP1-HaloTagTM were labeled with 100 nM JF646-HTL for 30 minutes and washed three times with pre-warmed DMEM medium. The final concentration of 5 μM+36GFP fusion proteins was incubated with the LAMP1-HaloTagTM expressing U-2 OS cells on a pre-coated coverslip for 1 hr. Cells were fixed with 4% paraformaldehyde for 20 min at room temperature (RT) and quenched/rinsed with PBS supplemented with 30 mM glycine. Then, the coverslips were mounted on FluoroSaveTM (Millipore). For pH measurement of the lysosome, LysoSensorTM Yellow/Blue DND-160 was incubated at 1 mg/mL overnight and washed twice prior to imaging (54). The final concentration of 5 μM protein was incubated with the LAMP1-HaloTag expressing U2-OS cells that were loaded with 1 mg/mL LysoSensorTM Yellow/Blue DND-160 for 1 hr. In separate chambers, LysoSensorTM Yellow/Blue DND-160 loaded cells were incubated with bafilomycin A1 (1 μM) and chloroquine (50 μM) for 1 hr as a control. For fixed cell confocal microscopy, a customized Nikon TiE inverted scope outfitted with a Yokogawa spinning-disk scan head (#CSU-X1) along with an Andor iXonTM EM-CCD camera (DU-897) with […] exposure time was used to collect 3D images using an SR Apo TIRF 100×1.49 oil-immersion objective. […] coefficients were calculated in 3D with JF646 signal (LAMP-HaloTag) and +36GFP signal (corresponding proteins) using Imaris software with thresholding. Zeiss 880 equipped with AiryScanTM was also used to obtain high resolution images using a Plan-Apochromatic 63×/1.4 oil DIC objective.

[4] = Circular dichroism: GdmCl chemical denaturation and temperature melts; settings: for folding stability by GdmCl denaturation: CD at 222 nm, PBS pH 7.4 or Na2PO4-Citrate at lower pH
Description: For low-pH experiments involving circular dichroism (CD), small-angle X-ray scattering (SAXS), and size exclusion chromatography (SEC), Na2PO4-Citrate buffer was used to ensure that a single buffer system could be used that was stable over the entire pH range to be tested. Buffers were made using established ratios of stock solutions of 0.2 M Na2PO4 and 0.1 M Citrate; final pH was adjusted using hydrochloric acid (HCl) or sodium hydroxide (NaOH) if needed.
CD wavelength scans (260 to 195 nm) and temperature melts (25 to 95° C.) were measured using a JASCO™ J-1500 or an AVIV™ model 420 CD spectrometer. Temperature melts monitored absorption signal at 222 nm and were carried out at a heating rate of 4° C./min; protein samples were at 0.25 mg/mL in either phosphate buffered saline (PBS) pH 7.4 or Na2PO4-Citrate at indicated pH values (see Buffers systems for varying pH). Guanidinium chloride (GdmCl) titrations were all performed on an AVIV 420 spectrometer with an automated titration apparatus using either PBS pH 7.4 or Na2PO4-Citrate buffers at indicated pH at room temperature, monitoring helical signal at 222 nm, using a protein concentration of 0.025 mg/mL in a 1 cm cuvette with stir bar. Each titration consisted of at least 30 evenly distributed concentration points with one minute mixing time for each step. Titrant solution consisted of the same concentration of protein in the same buffer system plus GdmCl; GdmCl concentration of starting solutions was determined by reactive index.

[5] = 2.5 μM protein with respect to monomer

| Molecule | pH response of oligomeric state (pH-induced disassembly) ([1]; native MS) | reversibility of disassembly ([1]; pH lowered with acetic acid, then raised by ammonia or buffer exchange) | highest pH with liposome disruption [2, 5] | pH of maximal liposome disruption activity [2, 5] | pH-dependent liposome disruption [2, 5] | disruption of liposomes with more native-like lipid compositions ([2]; pH 5.0, DOPC, POPS, cholesterol mixtures) | colocalization with lysosomal membranes [3] | effect of EDTA on helical fold or thermostability ([4]; 10 mM EDTA, PBS pH 7.4) | folding stability by GdmCl denaturation [4] | cooperativity of the pH-induced transition ([1]; native MS at different pH values) | pH transition point of disassembly (pH set point, pH0) ([1]; native MS, evaluated from pH 7 down to pH 3) | colocalization with lysosomal membranes ([3]; listed as I56V) |
| --- | --- | --- | --- | --- | --- | --- | --- | --- | --- | --- | --- | --- |
| pRO-2: designed pH-responsive homotrimer, SEQ ID NO: 1-2 (protein) chain 1: MGSHHHHHHGSGSENLYFQGSEYEIRKALEELKAATAELKRATASLRAITEELKKNPSEDALVEHNRAIVEHNAIIVEHNRIIAAVLELIVRAIK chain 2: SEYEIRKALEELKAATAELKRATASLRAITEELKKNPSEDALVEHNRAIVEHNAIIVEHNRIIAAVLELIVRAIK | predominantly monomeric at pH 4 | re-association of monomers into trimer | ≤ 6 pH | ~5 pH | disrupts liposomes in a pH-dependent manner | caused pH-dependent disruption of liposomes with more native-like lipid compositions | colocalize with lysosomal membranes and are not degraded | no effect on the helical fold or thermostability | decreased folding stability at low pH; also recorded: strongly pH dependent |  |  |  |
| pRO-2 I56V: pRO-2 mutant, SEQ ID NO: 17-18 (protein) chain 1: MGSHHHHHHGSGSENLYFQGSEYEIRKALEELKAATAELKRATASLRAITEELKKNPSEDALVEHNRAIVEHNAIVVEHNRIIAAVLELIVRAIK chain 2: GSEYEIRKALEELKAATAELKRATASLRAITEELKKNPSEDALVEHNRAIVEHNAIVVEHNRIIAAVLELIVRAIK | most pH-sensitive |  |  |  | increased liposome permeabilization activity; also recorded: increased membrane permeabilization activity |  | clearly localized within lysosomes |  | decreases stability | Neither of the mutations substantially affect the cooperativity | approximately 5.8 pH | colocalize with lysosomal membranes and are not degraded; also recorded: most strongly colocalized with the lysosomal membrane |
